We go through 2 molecules from patent US10829756B2, “Discovery of enzymes from the alpha-keto acid decarboxylase family” (Regents of the University of California, priority 2015, dated 2020).

Where “and” joins values, the source holds several entries; their conditions need not be identical. Equal entries are not always repeated.

Data set [1] is described as follows: In vitro steady-state kinetics of purified 2-ketoacid decarboxylases (ADH/NADH-coupled), C8 substrate. The conditions noted are these: relative to GEO 175. The format is biochemical. As to the method: (§1) For the native KIVD and KIVD_VLV mutant, 2 ml overnight cultures of XL1B cells were transformed with pQE9 containing N-terminal his-tagged KIVD enzymes and grown in Terrific Broth (BP biomedical, Cat#3046-042) with 50 μg/mL of carbenicillin. (Fisher scientific, Cat# BP2648-5) For the GEOs, 2 ml overnight cultures of BLR cells were transformed with pet29b+ plasmid containing N-terminal his-tagged GEOs, and grown in Terrific Broth with 50 μg/mL of kanamycin. (Fisher scientific, Cat# BP906-5) These cultures were diluted 1:1000 in 500 mL of Terrific Broth with 1 mM MgSO4, 1% glucose, and 50ug/mL of corresponding antibiotics, then grown at 37° C. for 24 hours. […] Protein concentrations were determined using a Synergy H1 spectrophotometer (Biotek) by measuring absorbance at 280 nm using their calculated extinction coefficients with ExPASy ProtParam Tool.^33 All other buffers and salts were purchased from Fisher Scientific unless otherwise specified.
(§2) The kcat and KM values of selective KIVD mutants were measured for the substrates: C3, C5, isoC5, and C8. […] Activity was measured at 0.005 mM to 10 mM substrates. […] Absorbance readings were taken every 1-minute at OD340 at 21° C. for 60 minutes using the Synergy H1. Kinetic parameters (kcat and KM) were determined by fitting initial velocity versus substrate concentration data to the Michaelis-Menten equation.

Data set [2] is described as follows: In vitro steady-state kinetics of purified 2-ketoacid decarboxylases (ADH/NADH-coupled), C5 substrate. It is filed as biochemical. The conditions noted are these: relative to GEO 175. The method, then:
as §1, §2

Data set [3] relates to synthetic recursive+1 pathway. The experiment in a line: In vivo alcohol production of the synthetic recursive+1 pathway (fermentation, GC-FID). It is filed as cell-based, E. coli. As to the method: The measured specificity and activity for each enzyme was used to select two candidates for further characterization of their ability to modulate alcohol production in vivo. The two enzymes with the highest activity and specificity (FIG. 4), KIVD_VLV and GEO 175, were tested for their ability to reprogram the synthetic recursive+1 pathway to produce long-chain alcohol products in vivo. The alcohol-producing biochemical pathway was adapted from a previous study used to synthesize alcohols of various lengths.^3,4 Starting from glucose, the aforementioned+1 pathway, involving LeuABCD, recursively elongates 2-ketoacids, starting with 2-ketobutyrate, into longer chained 2-ketoacids. These 2-ketoacids are then converted to aldehydes by ketoacid decarboxylases (native KIVD, KIVD_VLV, and GEO 175) and subsequently to alcohols by an alcohol dehydrogenase. Carbon flux through this alcohol synthesizing biochemical pathway is enhanced by overexpressing thrABC, ilvA, LeuABCD, and ADH6 on inducible plasmids transformed into E. coli.^3 The effects of overexpression were furthermore supported and maintained by knocking out the threonine exporter enzyme RhtA and the primary DNA recombination degradation enzyme RecA. The enzyme AdhE was also knocked out, which helps raise long chain alcohol production by eliminating a competing pathway where acetyl-CoA is directly converted to ethanol.^19
Genes were removed from the ATCC 98082 ΔrhtA strain genome using P1 transduction from the Keio collection as previously.^32 The aldehyde-alcohol dehydrogenase gene (adhE) was knocked out to eliminate ethanol production from acetyl-coA. In all strains, recA was knocked out to prevent recombination between the genome and plasmids, thereby stabilizing the transformants. Primers used to target recA for knockout were designed based on the Keio collection (Genobase, ecoli.aist-nara.ac.jp) and ordered from Integrated DNA Technologies.
For n-alcohol production, strains of ST128 were transformed with pZS_thrO, pZAlac_ilvABSleuA, and pZE_LeuA*BCDK*A6 containing various kivd mutations. Fermentation conditions were adapted from those in previous works,^3,4 with the following changes: 20 mL of medium was used, with 100 μg/mL ampicillin, […] kanamycin, and 100 μg/mL spectinomycin added. Cells were grown to an optical density at 600 nm of ˜0.6, followed by induction with 0.1 mM isopropyl-b-D-thiogalactoside (IPTG). After fermentation, cells were centrifuged for 15 minutes at 4000×g and 4° C. The supernatant was split into two fractions for analysis, 5 mL for short chain alcohols (ethanol, 1-propanol, and 1-butanol), and 15 mL for long chain alcohols (1-pentanol, 1-hexanol, 1-heptanol, and 1-octanol). Long chain alcohols were extracted from the 15 mL fraction by 3 mL n-hexane prior to analysis. GC-FID analysis was performed as previously described.^4

The nature of data set [4]: High-throughput pH-dependent colorimetric assay of KIVD mutant libraries in crude cell extracts. It is filed as biochemical. The following applies: combinatorial KIVD mutants. As to the method:
Partially degenerate oligonucleotides were ordered from Integrated DNA Technologies (San Diego, Calif.) and were used to generate libraries of kivd mutants (with N-terminal his tags) by PCR. Library DNA was purified, inserted into the PCR-amplified pQE9 vector by isothermal Gibson assembly,^31 and transformed into XL1-Blue cells. Individual ampicillin-resistant colonies were picked and grown in 96-well blocks at 37° C. overnight. The number of colonies picked was three times the theoretical library size to ensure approximately 95% probability of all possible mutation combinations occurring. Glycerol was added to 25% (w/v) and libraries were stored at −80° C. until enzyme activity and specificity were assayed. KIVD mutant libraries were screened using a pH-monitored enzyme assay (method explained below) to measure the rate of H^+ consumption resulting from the decarboxylation of 2-ketoacids.
KIVD mutant libraries were grown overnight in culture blocks, diluted 1:100 into fresh media (Luria Broth), grown at 37° C. for 3 hours to OD600 ˜0.6, induced with 0.1 mM IPTG (GoldBio, Saint Louis, Mo.), and grown for 2 additional hours at 37° C. Cells from the well blocks were transferred to 96-well assay plates (Costar, Corning, N.Y.) and cell density was measured at 600 nm. […] Absorbance was measured at 615 nm in a spectrophotometer (TEK Powerwave XS, BioTek, Winooski, Vt.). […]

Where [5] appears, read: forty hours, microaerobic, defined media.

B1: GEO175 L376T_T240S: engineered mutant of GEO 175 containing two amino acid changes (L376T, T240S), SEQ ID NO:19 (protein)
chain: MRTVRESALDVLRARGMTTVFGNPGSTELPMLKQFPDDFRYVLGLQEAVVVGMADGFALASGTTGLVNLHTGPGTGNAMGAILNARANRTPMVVTAGQQVRAMLTMEALLTNPQSTLLPQPAVKWAYEPPRAADVAPALARAVQVAETPPQGPVFVSLPMDDFDVVLGEDEDRAAQRAAARTVTHAAAPSAEVVRRLAARLSGARSAVLVAGNDVDASGAWDAVVELAERTGLPVWSAPSEGRVAFPKSHPQYRGMLPPAIAPLSRCLEGHDLVLVIGAPVFCYYPYVPGAHLPENTELVHLTRDADEAARAPVGDAVVADLALTVRALLAELPAREAAAPAARTARAESTAEVDGVLTPLAAMTAIAQGAPANTTWVNESPSNLGQFHDATRIDTPGSFLFTAGGGLGFGLAAAVGAQLGAPDRPVVCVIGDGSTHYAVQALWTAAAYKVPVTFVVLSNQRYAILQWFAQVEGAQGAPGLDIPGLDIAAVATGYGVRAHRATGFGELSKLVRESALQQDGPVLIDVPVTTELPTL
modifications: Synthetic mutant of GEO175
Consider B1, for which, in data set [1], the “effect on catalytic efficiency on C8” value is given as “decrease catalytic efficiency on C8”. Moreover, in data set [2], the “effect on shorter chain substrates” value is recorded as “negligible effect”.

B2: KIVD_VLV: KIVD triple mutant G402V/M538L/F542V, SEQ ID NO:3 (protein)
chain: MYTVGDYLLDRLHELGIEEIFGVPGDYNLQFLDQIISRKDMKWVGNANELNASYMADGYARTKKAAAFLTTFGVGELSAVNGLAGSYAENLPVVEIVGSPTSKVQNEGKFVHHTLADGDFKHFMKMHEPVTAARTLLTAENATVEIDRVLSALLKERKPVYINLPVDVAAAKAEKPSLPLKKENSTSNTSDQEILNKIQESLKNAKKPIVITGHEIISFGLEKTVSQFISKTKLPITTLNFGKSSVDEALPSFLGIYNGKLSEPNLKEFVESADFILMLGVKLTDSSTGAFTHHLNENKMISLNIDEGKIFNESIQNFDFESLISSLLDLSEIEYKGKYIDKKQEDFVPSNALLSQDRLWQAVENLTQSNETIVAEQGTSFFGASSIFLKPKSHFIGQPLWVSIGYTFPAALGSQIADKESRHLLFIGDGSLQLTVQELGLAIREKINPICFIINNDGYTVEREIHGPNQSYNDIPMWNYSKLPESFGATEERVVSKIVRTENEFVSVMKEAQADPNRMYWIELILAKEDAPKVLKKLGKLVAEQNKS
modifications: Synthetic protein KIVD_VLV
B2: in data set [3], the “drop of overall alcohol production from that obtained with KIVD” value was roughly 10 fold, the “heptanol share of alcohol production” value amounted to 37%, the “hexanol share of alcohol production” value was 47% and the major alcohol product entry was “Hexanol (C6)”. The “pentanol share of alcohol production” value in data set [3] stood at 16%. Besides, in data set [3] (setting [5]), the 1-Ethanol production result was “no ethanol or propanol production is observed”; the 1-Heptanol production is 269 mg/L and 269 ± 23 mg/L; the 1-Hexanol production is 341 mg/L and 341 ± 63 mg/L; the 1-Octanol production result is listed as “not observed”. Further, in data set [3] (setting [5]), the 1-Pentanol production is 118 mg/L and 118 ± 29 mg/L; the 1-Propanol production result is on record as “no ethanol or propanol production is observed”. Besides, in data set [3] (sum of long chain alcohols), the “long chain (≥C5) alcohols produced” value was 728 mg/L. Moreover, the “specificity for C8 and activity in colorimetric screening” value in data set [4] is “highest specificity and activity”.
